B1: Group 37 representative clone F083-311, Fab-PP-type antibody (Fab, V domains shown)
VH: QVQLVQSGSEVKKPGSSVKVSCKASGGIFRTNAISYVRQAPGQGLEWMGGITAIFGTPNYAQKFQGRVTIIADESTSTVYMELGSLTSEDTAVYYCATSGTYYVSYFDSWGQGTLVTVSS
VL: DIVMTQSPGTLTLSPGERATLSCRASQSLYSSHLAWYQQKPGQPPRLLIYGASTRAPGTPDRFSGSGSGTDFTLTITALDPEDSAVYYCQQYGSSPITFGQGTRLEIK
B2: Group 1 representative clone F080-227, Fab-PP-type antibody (Fab, V domains shown)
VH: QVQLQESGAEVKKPGSSVKVSCKASGGIFRRNAISWVRQAPGQGLEWMGGIIAIFGTANYAQKFQGRVTITADESTSTVYMELSSLRPEDTAVYYCARGPNYYENFFDYWGQGTLVTVSS
VL: DIVMTQSPSSLSASVGDRLDLTCRASQDIANSLAWYKQRPGKAPELLVFGASRLEGGVPSRFSGTRAGTDFTLTISSLQPEDLGTYFCQQYFSFPRTFGQGTTLDLR
B3: Group 47 representative clone F083-308, Fab-PP-type antibody (Fab, V domains shown)
VH: QVQLVQSGAEVKKPGSSVKVSCKASGGIFRSHAISWVRQAPGQGLEWMGGIIAIFGTTHYAQQFQGRVTITADESTSTVYMELSTLRSEDTAVYYCARGPNYFESYFDNWGQGTLVTVSS
VL: EIVLTQSPATLSLSPGERATLSCRASQTISSYLAWYQQKPGQAPRLLIYGASNRATGIPARFSGSGSGTDFTLTINSLEPEDFAVYYCQQRSSWPPITFGQGTRLEIK
B4: Group 35 representative clone F082-117, Fab-PP-type antibody (Fab, V domains shown)
VH: QVQLVQSGSEVKKPGSSVKVSCKSSGGILRRSAISWVRQAPGQGLEWMGGILAIFGTTKYAQKFQGRITITADESTNTVHMELSSLRPDDTAVYYCAGGPHYYVSYFDSWGQGTLVTVSS
VL: DIQMTQSPATLSLSPGERATLSCRASQSVRSYLAWYQQKPGQAPRLLIYDASNRATGIPARFSGSGSGTEFTLTISRLEPEDFAVYYCQQRSNWLFTFGPGTKVDFK
B5: Group 39 representative clone F082-237, Fab-PP-type antibody (Fab, V domains shown)
VH: QVQLVQSGAEVKKPGSSVKVSCKASGGIFNKYGISWVRQAPGQGLEWMGGILAIFGTTNYAQKFQGRVTISADESSTTVYMELSSLTSEDTAVYYCARGNTYYSSYFDQWGQGTLVTVSS
VL: QSVLTQPPSVSVAPGQTATITCGGDKIGTGPVHWYQQMPGRAPVLLIYASTHRPSRIPERFSGSKSDNTATLSISGVGVGDEADYYCQMWDSSSVHPIVFGGGTKLTVLS
B6: Group 54 representative clone F083-354, Fab-PP-type antibody (Fab, V domains shown)
VH: B5 VH with A9S, K31S, S71T, E74D, T77K, N100S
VL: DIQMTQSPSSLSASVGDRVTITCRASQGIRNSLAWYQQKPGQVPKLLIYSATTLRSGVPYRFSGSGSGTDFTLTISGLQPEDVGTYFCHRYDSAPLTFGGGTRVALK
B7: Group 3 representative clone F081-281, Fab-PP-type antibody (Fab, V domains shown)
VH: QVQLVQSGSEVKKPGSSVKVSCSFKASGGIISKYAITWVRQAPGQGLEWMGGIIAIFGSTNYAQKFQGRLTITSDESTSTAYMELSSLTSEDTAVYYCGRGPHYYESHLDYWGQGTLVTVSS
VL: EIVLTQSPGTLSLSPGERATLSCRASQGMSSSFLAWYQQKPGQPPRLLISGASTRATGIPDRFSGSGSGTDFTLTINRLEPEDFAVYYCQQYGSSPRTFGQGTKVEIK
B8: Group 48 representative clone F083-389, Fab-PP-type antibody (Fab, V domains shown)
VH: QVQLVQSGAEVKKPGSSVKVSCKASGDIFNKFAITWVRQAPGQGLEWMGGITALFATTSYAQKFQDRVTINWDESTTTAFMELSSLRFEDTAVYYCARGPNYYETYLDNWGQGTLVTVSS
VL: EIVLTQSPTILSASVGDRVTITCRASQSISKWLAWYQQKPGKVPKLLIYMASTLESGVPSRFSGSGSGSEFTLTISSLQPGDFATYYCQQYNSYPRTFGQGTKVEINV
B9: Group 42 representative clone F083-249, Fab-PP-type antibody (Fab, V domains shown)
VH: QVQLVQSGSEVKKPGSSVKVSCKASGVTFSSYAISWVRQAPGQGLEWMGGISPMFGTTRYAQKFQGRVTITADESTRTGFMELSSLRSGDTAVYYCARSPTYYPGALDMWGQGTTVTVSS
VL: DVVMTQSPSLLSASVGDRVTITCRASQAIANFVSWFQQKPGEAPKSLIHAASTLQGGVPPRFSGSGYGAVFTLTITNLQPEDFATYFCQQYNSLPFTFGPGTDVEVR
B10: Group 52 representative clone F083-328, Fab-PP-type antibody (Fab, V domains shown)
VH: QVQLVQSGAEVKKPGSSVKLSCKASGGTLRSYALSWVRQAPGEGLEWMGGISAIFNTATYAQNVQGRVTITADESTNTFYLEVSSLRSDDTAVYYCATSGTYYVSFFDYWGQGTLVTVSS
VL: DIVLTQSPSTLSASVGDRVTLTCRASQSIGSLMAWYQQQPGKPPKLLIYRASNLETGVPSRFTGSGSGTEFALTISSLQPDDVGTYYCQHFKTFSRTFGQGTKVEIK

The values that follow come from US20160200799A1.

Positions count from the first letter of the chain named.

In the first assay the target is Influenza virus A/Brisbane/59/2007 (H1N1) (Influenza A virus A/Brisbane/59/2007 (H1N1)). Kind of assay: cell-based or functional assay.
In the case of B1, the HI activity was more than 160 µg/mL, the Neutralizing activity (%) at 100 µg/ml turned out to be 100% and the Neutralizing activity (%) at 250 µg/ml is 100%.
As to B2, the HI activity was more than 160 µg/mL, the Neutralizing activity (%) at 100 µg/ml turned out to be 96% and the Neutralizing activity (%) at 250 µg/ml was found to be 98%.
Turning to B3, the HI activity is more than 160 µg/mL, the Neutralizing activity (%) at 100 µg/ml was 100% and the Neutralizing activity (%) at 250 µg/ml came to 100%.
For the molecule B4, the HI activity was more than 160 µg/mL, the Neutralizing activity (%) at 100 µg/ml turned out to be 100% and the Neutralizing activity (%) at 250 µg/ml worked out at 100%.
Consider B5, for which the HI activity was more than 160 µg/mL, the Neutralizing activity (%) at 100 µg/ml is 48.7% and the Neutralizing activity (%) at 250 µg/ml was determined as 64.5%.
Take B6: the HI activity was more than 160 µg/mL, the Neutralizing activity (%) at 100 µg/ml amounted to 96.1% and the Neutralizing activity (%) at 250 µg/ml is 100%.
Consider B7, for which the HI activity was more than 160 µg/mL, the Neutralizing activity (%) at 100 µg/ml is 98% and the Neutralizing activity (%) at 250 µg/ml was found to be 100%.
For B8, the HI activity is more than 160 µg/mL, the Neutralizing activity (%) at 100 µg/ml stood at 98% and the Neutralizing activity (%) at 250 µg/ml came out at 100%.
As to B9, the HI activity was more than 160 µg/mL, the Neutralizing activity (%) at 100 µg/ml was 100% and the Neutralizing activity (%) at 250 µg/ml turned out to be 100%.
In the case of B10, the HI activity is more than 160 µg/mL, the Neutralizing activity (%) at 100 µg/ml came to 100% and the Neutralizing activity (%) at 250 µg/ml is 100%.

Another assay concerns the target Influenza virus A/Suita/1/2009pdm (H1N1 2009 pandemic) (Influenza A virus A/Suita/1/2009pdm (H1N1pdm)). Kind of assay: cell-based or functional assay.
As to B1, the Neutralizing activity (%) at 100 µg/ml was 93% and the Neutralizing activity (%) at 250 µg/ml was 100%.
The matching figures for B2: 100% and 100%.
Turning to B3, the Neutralizing activity (%) at 100 µg/ml amounted to 97.7% and the Neutralizing activity (%) at 250 µg/ml came to 100%.
With B4, the Neutralizing activity (%) at 100 µg/ml was 100% and the Neutralizing activity (%) at 250 µg/ml is 100%.
On to B5, for which the Neutralizing activity (%) at 100 µg/ml was found to be 95.3% and the Neutralizing activity (%) at 250 µg/ml was 100%.
The like results for B6 were, in that order, 100% and 94.2%.
Consider B7, for which the Neutralizing activity (%) at 100 µg/ml was 100% and the Neutralizing activity (%) at 250 µg/ml turned out to be 100%.
As for B8, the Neutralizing activity (%) at 100 µg/ml is -18.3% and the Neutralizing activity (%) at 250 µg/ml is 100%.
In the case of B9, the Neutralizing activity (%) at 100 µg/ml worked out at 100% and the Neutralizing activity (%) at 250 µg/ml was determined as 97.7%.
As for B10, the Neutralizing activity (%) at 100 µg/ml was 100% and the Neutralizing activity (%) at 250 µg/ml was found to be 100%.

The next assay concerns the target Influenza virus A/Panama/2007/1999 (H3N2) (Influenza A virus A/Panama/2007/1999 (H3N2)). The assay is described as follows: cell-based or functional assay.
For B1, the Neutralizing activity (%) at 100 µg/ml is -8.9% and the Neutralizing activity (%) at 250 µg/ml worked out at 5.5%.
In the case of B2, the Neutralizing activity (%) at 100 µg/ml was -0.7% and the Neutralizing activity (%) at 250 µg/ml was -0.7%.
In the case of B3, the Neutralizing activity (%) at 100 µg/ml was determined as 1.4% and the Neutralizing activity (%) at 250 µg/ml was -6.8%.
On to B4, for which the Neutralizing activity (%) at 100 µg/ml was 3.4% and the Neutralizing activity (%) at 250 µg/ml is -4.8%.
Regarding B5, the Neutralizing activity (%) at 100 µg/ml was -2.7% and the Neutralizing activity (%) at 250 µg/ml stood at 15.8%.
In the case of B6, the Neutralizing activity (%) at 100 µg/ml was -0.7% and the Neutralizing activity (%) at 250 µg/ml was -11%.
Take B7: the Neutralizing activity (%) at 100 µg/ml is -11.6% and the Neutralizing activity (%) at 250 µg/ml was -8.9%.
Regarding B8, the Neutralizing activity (%) at 100 µg/ml was -0.7% and the Neutralizing activity (%) at 250 µg/ml worked out at 19.9%.
The like results for B9 were, in that order, 15.8% and 34.2%.
Take B10: the Neutralizing activity (%) at 100 µg/ml turned out to be 9.6% and the Neutralizing activity (%) at 250 µg/ml was found to be 5.5%.

In the next assay the target is Influenza virus A/Indonesia/5/2005/PR8-IBCDC-RG2 (H5N1) (Influenza A virus A/Indonesia/5/2005/PR8-IBCDC-RG2 (H5N1)). Kind of assay: cell-based or functional assay.
On to B1, for which the Neutralizing activity (%) at 100 µg/ml is 90% and the Neutralizing activity (%) at 250 µg/ml came to 97.1%.
Regarding B2, the Neutralizing activity (%) at 100 µg/ml turned out to be 67.6% and the Neutralizing activity (%) at 250 µg/ml turned out to be 52.9%.
The matching figures for B3: 29.4% and 49.4%.
The matching figures for B4: 94.1% and 95.9%.
For the molecule B5, the Neutralizing activity (%) at 100 µg/ml worked out at 31.2% and the Neutralizing activity (%) at 250 µg/ml came out at 41.2%.
Take B6: the Neutralizing activity (%) at 100 µg/ml came to 66.4% and the Neutralizing activity (%) at 250 µg/ml came out at 80.7%.
Consider B7, for which the Neutralizing activity (%) at 100 µg/ml is 81.8% and the Neutralizing activity (%) at 250 µg/ml amounted to 85.9%.
Turning to B8, the Neutralizing activity (%) at 100 µg/ml came to 54.6% and the Neutralizing activity (%) at 250 µg/ml amounted to 60.8%.
Consider B9, for which the Neutralizing activity (%) at 100 µg/ml came out at 96.5% and the Neutralizing activity (%) at 250 µg/ml was determined as 98.2%.
As for B10, the Neutralizing activity (%) at 100 µg/ml came to 86.9% and the Neutralizing activity (%) at 250 µg/ml turned out to be 93.2%.

The next assay addresses Influenza virus A/California/7/2009pdm (H1N1pdm) (Influenza A virus A/California/7/2009pdm (H1N1pdm)). The assay is described as follows: cell-based or functional assay.
B1 showed an HI activity of more than 160 µg/mL.
Molecule B2 gave an HI activity of more than 160 µg/mL.
In the case of B3, the HI activity was more than 160 µg/mL.
The molecule B4 displayed an HI activity of more than 160 µg/mL.
In turn, B5 yielded an HI activity of more than 160 µg/mL.
Regarding B6, the HI activity was more than 160 µg/mL.
Same read-out and setting: the same measure for B7: more than 160 µg/mL; for B8: more than 160 µg/mL.
Consider B9, for which the HI activity was more than 160 µg/mL.
The molecule B10 returned an HI activity of more than 160 µg/mL.
